# B1: galectin-8 variant 1: recombinant galectin-8 variant 1 polypeptide, SEQ ID NO: 6, isoform found in synovial fluid cells of arthritic patients (protein)
# chain: MMLSLNNLQNIIYNPDLQSTQASSLELTEISRENVPKSGTPQLPSNRGGDISKIAPRTVYTKSKEARQSHFDLHENTTYELCVKSLPFAARLNTPMGPGRTVVVKGEVNANAKSFNVDLLAGKSKDIALHLNPRLNIKAFVRNSFLQESWGEEERNITSFPFSPGMYFEMIIYCDVREFKVAVNGVHSLEYKHRFKELSSIDTLEINGDIHLLEVRSW
# Columns and labels:
# TNFα [1] = experiment: TNFα levels in media of LPS-supplemented human synovial tissue / cell cultures, sandwich enzyme immunoassay; type: cell-based; details: LPS 3 μg/ml, 50-2000 ng/ml, 48 hours
# Method: Specimen Selection and Culture Conditions: Synovial tissues were obtained from patients undergoing total knee or hip replacement for osteoarthritis (OA). Within 2 hours of removal, synovial tissues were cut into small pieces, of a few millimeters in diameter. Synovial fibroblasts were cultured in 2 ml RPMI 1640 supplemented with 2 mM L-glutamine, 100 U/ml penicillin and 100 μg/ml streptomycin sulphate (Biological Industries).
# (§1) Inflammatory cells and PBLs derived from joints of rheumatoid arthritic (RA) patients were cultured individually [RPMI-1640 (Sigma, Israel)]. The murine fibroblast line, NIH 3T3, was used as a control. The recombinant galectin-8 peptide (r-galectin-8) was added to the culture medium of the synovial fibroblasts at a concentration of 0.125 μM, 0.25 μM, 0.5 μM and 1 μM) together with lipopolysaccharide (LPS, 3 μg/ml). The recombinant galectin-8 peptide variants (r-galectin-8 variant 1 and r-galectin-8 variant 2) were added to all the culture mediums in the following concentrations: 50 ng/ml, 125 ng/ml, 250 ng/ml, 500 ng/ml, 750 ng/ml, 1 μg/ml and 2 μg/ml together with lipopolysaccharide (LPS, 3 μg/ml). Following 48 hours of incubation (37° C., 5% CO2), the measurement of IL-1β, TNF-α and IL-1ra production was performed in supernatants by quantitative sandwich enzyme immunoassay technique (R&D Systems, Inc., USA). Detection limits were 1 pg/ml to 14 pg/ml. IL-1ra production was tested with and without the addition of lipopolysaccharide (LPS, 3 μg/ml) to the culture media.
# IL-1β = IL-1β levels in media of NIH 3T3 fibroblasts (negative control cells); type: cell-based, murine; details: LPS 3 μg/ml, 50-2000 ng/ml, 48 hours
# Method: as §1
# TNFα [2] = experiment: TNFα levels in media of NIH 3T3 fibroblasts (negative control cells); type: cell-based, murine; details: LPS 3 μg/ml, 50-2000 ng/ml, 48 hours
# Method: as §1
# [3] = test system: human fibroblasts from OA patients; experiment: Apoptosis induction, annexin V/PI flow cytometry, OA fibroblasts; type: cell-based; details: for total cell population in the apoptotic area: 24 h, no-addition control 39.5%
# Method: The assay was performed by Phosphatidyl Serine Detection Kit (IOP-116F FITC-conjugated, IQ Products, The Netherlands) using the manufacturer instructions. Human fibroblast cells from OA patients, synovial fluid cells and PBLs from RA and other arthritic patients were incubated with increasing concentrations of galectin-8 variants 1 and 2 (50-2000 ng/ml). Specific binding of annexin V was performed by the incubation of cells for 20 minutes on ice in a binding calcium buffer containing a saturating concentration of annexin V-fluorescein isothiocyanate (FITC) and propdium iodide (PI). After incubation, the cells were pelleted, and analyzed in FACS analyzer (Beckton Dickinson, San Jose, Calif.). Annexin V^+/PI^+ cells were defined as necrotic, while annexin V^+/PI^− cells were defined as apoptotic. The percent of the apoptotic cells of the total cells was determined.
# [4] = test system: collagen induced arthritis (CIA); experiment: Collagen-induced arthritis (CIA) in DBA/1 mice, footpad thickness; type: in vivo; details: 100 μg per injection
# From the text: Animal treatment: 44 DBA/1 mice were induced with a joint inflammatory disease by two subcutaneous (s.c.) injections into the base of the tail of type II collagen three weeks apart. Joint inflammation, which appears several days after the last collagen injection, causes enhanced marked foot pad swelling, as well as swelling of other joints. The diameter of nonarthritic footpads is 1.5 to 1.7 mm. A footpad diameter of 1.9 to 2.0 mm was arbitrarily set as disease onset. […] Human galectin-8 protein and variants (100 μg per injection) as well as control injections were injected IP at disease onset and then every day for 11 days. The 44 mice were divided into 5 experimental groups as follows: Group 1 (negative control): systemic injection (starting at CIA onset) of PBS or PBS+30% glycerol (storing dilution solution of galectin proteins) (10 mice). Group 2 (positive control): systemic injection (starting at CIA onset) of anti-mouse TNFα mAb (cat. no. AMC-3012, Biosource Int. Inc. USA) adhering to the standard protocol (i.e., 100 μg antibody/mouse every day for 11 days) (6 mice). Group 3 (positive control): systemic injection of human galectin-8 protein according to the standard protocol (10 mice). Group 4: systemic injection of 100 μg per dose of human galectin-8 variant 1 according to the standard protocol (10 mice). Group 5: systemic injection of 100 μg per dose of human galectin-8 variant 2 (8 mice). The effect on footpad thickness was determined in a “blind” fashion, recording the electronic microcaliper measurements of the thickness of the joints, by picking the animals at random and recording their ears' signs following measurement. The mice were bled prior to disease induction, following disease onset and upon termination of the experiment (approximately day 11). The sera were stored and later analyzed for the presence of rheumatoid factor (RF) and cytokines. The mice were killed upon termination of the experiment and the joints removed from some of the animals for histopathological examination.
# [5] = test system: collagen induced arthritis (CIA); experiment: Histopathological examination of rear footpad joints of CIA mice; type: in vivo, DBA/1 mice; details: compared with joints of arthritic mice treated with PBS or PBS+30% glycerol
# From the text: Histopathological examination: The rear footpad joints of 5 arthritic mice that received PBS or PBS+30% glycerol (group 1, negative control), 2 arthritic mice that received anti-mouse-TNFα mAb (group 2, positive control), 3 arthritic mice that received human galectin-8 protein (group 3, positive control), 3 normal healthy mice and 5 arthritic mice that received human galectin-8 variant 1 (group 4) were sent to an accredited pathological laboratory (Patho-Lab, Kiryat Weitzmann, Rehovot) for histopathological examination.
# Quantification of the arthritic changes was made subjectively based on degree of articular destruction and following evaluation of the different parameters often observed in arthritic joints. The definition of the parameters quantitated were: • 1. Cellularity within the joint: Cells present couldn't be identified due to loss of cellular morphology (decal), therefore red blood cells and leukocytes were all graded together. • 2. Presence of fibrin in the joint: Fibrin was present in apparently more acute lesions, but the amount of fibrin was proportionally small. • 3. Cartilage loss: Cartilage surfaces were evaluated in the section, slight changes of irregularity of the surface were noted. • 4. […] Synovial cell loss: Identification of synovial cells was difficult due to poor cellular morphology, but in general synovial surfaces were evaluated for integrity. • 6. […]
molecule,measurement,setting,value
B1,TNFα levels in media,TNFα [1]; PBLs from RA patients,significantly and dose-dependently inhibited
same,TNFα levels in media,"TNFα [1]; PBLs from RA patients, listed as galectin-8 var. 1",decrease
same,TNFα levels in media,TNFα [1]; human fibroblasts from OA patients,significantly and dose-dependently inhibited
same,TNFα levels in media,"TNFα [1]; human fibroblasts from OA patients, listed as galectin-8 var. 1",decrease
same,TNFα levels in media,TNFα [1]; synovial fluid cells (SFCs),significantly and dose-dependently inhibited
same,TNFα levels in media,"TNFα [1]; synovial fluid cells (SFCs), listed as galectin-8 var. 1",decrease
same,IL-1β levels in media,IL-1β,No effect
same,IL-1β levels in media,IL-1β; listed as galectin-8 var. 1,remain unaffected
same,TNFα levels in media,TNFα [2],No effect
same,TNFα levels in media,TNFα [2]; listed as galectin-8 var. 1,remain unaffected
same,total cell population in the apoptotic area,[3]; 50 ng/ml,32.5%
same,total cell population in the apoptotic area,[3]; 125 ng/ml,47.5%
same,total cell population in the apoptotic area,[3]; 250 ng/ml,48.4%
same,total cell population in the apoptotic area,[3]; 500 ng/ml,55.5%
same,total cell population in the apoptotic area,[3]; 750 ng/ml,58.5%
same,total cell population in the apoptotic area,[3]; 1000 ng/ml,77%
same,total cell population in the apoptotic area,[3]; 2000 ng/ml,77%
same,percentage of apoptotic cells,[3]; increasing concentrations (50-2000 ng/ml),gradually increased
same,CIA manifestations (footpad swelling),"[4]; IP / systemic, from disease onset every day for 11 days",substantially reduced
same,"alleviating the swelling in the footpad, compared with positive controls",[4]; every day for 11 days,at least as effective as anti-TNFα mAb and the human galectin-8 recombinant peptide
same,recovery of joints (histopathology),[5],"recovered, most of them completely and some at least partly"
